The record followed here is patent publication US20210292392A1.

Assay in all cases: cell-based or functional assay
Experiment [1] has as its target full length S protein of SARS-CoV-2 (on pseudovirus) (SARS-CoV-2) (UniProt P0DTC2).
The target in experiment [2] is spike (S) protein of live SARS-CoV-2 (SARS-CoV-2) (UniProt P0DTC2).
The target in experiment [3] is spike protein of live SARS-CoV-2 (SARS-CoV-2) (UniProt P0DTC2).
The target in experiment [4] is spike protein on live SARS-CoV-2 (SARS-CoV-2) (UniProt P0DTC2).

In the case of P2C-1F11 (antibody), in experiment [1], the Pseudovirus IC50 is 0.0286 µg/mL and the Pseudovirus IC80 was 0.119 µg/mL. In experiment [2], this substance had a Live virus IC50 of 0.0323 µg/mL and a Live virus IC80 of 0.178 µg/mL. Moreover, in experiment [3], the Live virus IC50 was 0.0323 µg/mL and the Live virus IC80 amounted to 0.178 µg/mL. Also, the IC50, live SARS-CoV-2 focus reduction neutralization test (FRNT) in experiment [4] came to 0.03 µg/mL.
